Assay results from patent publication US20240150440A1 (LUMEN BIOSCIENCE, published 2024).
Several values for one entry are separate records, joined by “and”; a condition that tells them apart may be missing. Equal entries are not always repeated.

Columns and labels:
[1] = biological target: SARS-CoV-2 Delta Variant spike protein on pseudotyped lentivirus (SARS-CoV-2 Delta variant); assay: cell-based or functional assay
[2] = biological target: SARS-CoV-2 Gamma Variant spike protein on pseudotyped lentivirus (SARS-CoV-2 Gamma variant); assay: cell-based or functional assay
[3] = biological target: T1, SARS-CoV-2 Beta Variant RBD (SARS-CoV-2 Beta variant); assay: ELISA, RBD coated
T1 construct: domain: RBD; coated on ELISA plates

[4] = biological target: T2, SARS-CoV-2 Alpha Variant RBD (SARS-CoV-2 Alpha variant); assay: ELISA, RBD coated
T2 construct: domain: RBD; coated on ELISA plates

[5] = biological target: T3, SARS-CoV-2 Gamma Variant RBD (SARS-CoV-2 Gamma variant); assay: ELISA, RBD coated
T3 construct: domain: RBD; coated on ELISA plates

[6] = biological target: T4, SARS-CoV-2 spike protein on pseudotyped lentivirus (Wuhan Reference Pseudovirus) (SARS-CoV-2, UniProt P0DTC2 14-1273); assay: cell-based or functional assay
[7] = biological target: T4, SARS-CoV-2 spike protein on pseudotyped …; assay: cell-based or functional assay; remark: listed apart in the source
[8] = biological target: T4, SARS-CoV-2 spike protein on pseudotyped …; assay: cell-based or functional assay; remark: listed apart in the source
[9] = biological target: T5, SARS-CoV-2 Delta Variant RBD (SARS-CoV-2 Delta variant); assay: ELISA, RBD coated
T5 construct: domain: RBD; coated on ELISA plates

[10] = biological target: T4, SARS-CoV-2 spike protein on pseudotyped …; assay: cell-based or functional assay; remark: listed apart in the source
[11] = biological target: T4, SARS-CoV-2 spike protein on pseudotyped …; assay: cell-based or functional assay; remark: listed apart in the source

B1: PP1897 Cerberbody (3-S3b-C8) (other, not shown: large carriers)
chain 1: QVQLVESGGGLVQPGGSLRLSCAASGSIENIERMHWYRQAPGKQRELVAVIDSGGTTRYADSVKGRFTISRDNAKNTVYLQMNSLKPEDTAVYYCAAVWLTNAESTQEYWGQGTQVTVSSHHHHHH
chain 2: QVQLVESGGGLVQPGGSLRLSCAASGSIENIERMHWYRQAPGKQRELVAVIDSGGTTRYADSVKGRFTISRDNAKNTVYLQMNSLKPEDTAVYYCAAVWLTNAESTQEYWGQGTQVTVSSTVILEYAHRLSQDILSDALQQWASHHHHHHHH
- Pseudovirus neutralization IC50 [1]: 0.09 nM

B2: PP1106 MBP-5HVZ-PAPA-RN-21-H6 (VHH)
VHH: QVQLVESGGGLVQPGGSLRLSCAASGLQTSDNAMHWFRQAPGKNRELVAGLTSGTSRNYGDSVKGRFTISRDNAKNTVYLQMNSLKPEDTAVYYCAAFPDVGDASSIGFVYWGQGTQVTVSS
notes: Form: Dimer
- Pseudovirus neutralization IC50 [2]: 63.4 nM
- EC50 [3]: 3.17 nM
- EC50 [4]: 2.05 nM
- EC50 [5]: 7.84 nM
- infectivity % under 10 ug/mL VHH treatment [6]: 76.6%

B3: PP1157 MPB-scTRP-PAPA-R2d-A6-H6 (VHH)
VHH: QVQLVESGGGLVQPGGSLRLSCAASGSGASIGAMHWFRQAPGKGREWVASITSAGNTYYGDSVKGRFTISRDNAKNTVYLQMNSLKPEDTAVYYCNALAGANYESQWEEYNYWGQGTQVTVSS
notes: Form: Trimer
- Pseudovirus neutralization IC50 [7]: 18.9 nM and 19.8 nM
- Pseudovirus inhibition IC50 [Cont. 1] [8]: 54.4 nM
- infectivity % under 10 ug/mL VHH treatment [6]: 32.9%

B4: PP1102 MBP-5HVZ-PAPA-RN-17-H6 (VHH)
VHH: QVQLVESGGGLVQPGGSLRLSCAASGSMYSRAVMHWFRQAPGKEREGVASIGRTGDSYYADSVKGRFTISRDNAKNTVYLQMNSLKPEDTAVYYCAADNLDVVYGNRYWGQGTQVTVSS
notes: Form: Dimer
- Pseudovirus neutralization IC50 [7]: ~5110 nM
- Pseudovirus neutralization IC50 [2]: 21.5 nM
- EC50 [3]: 2 nM
- EC50 [4]: 1.55 nM
- EC50 [5]: 1.26 nM
- infectivity % under 10 ug/mL VHH treatment [6]: 40.9%

B5: PP1103 MBP-5HVZ-PAPA-RN-18-H6 (VHH)
VHH: QVQLVESGGGLVQPGGSLRLSCAASGYYFQIVAMHWYRQAPGKEREGVAGITSTGSTYYGDSVKGRFTISRDNAKNTVYLQMNSLKPEDTAVYYCNAVSTDAQGAAEYWGQGTQVTVSS
notes: Form: Dimer
- Pseudovirus neutralization IC50 [1]: 2.49 nM
- EC50 [3]: 227 nM
- EC50 [4]: 1.45 nM
- EC50 [5]: 92.8 nM
- EC50 [9]: 2.69 nM
- infectivity % under 10 ug/mL VHH treatment [6]: 57.6%

B6: PP899 MBP-5HVZ-R5a-B5-H6 (VHH)
VHH: QVQLVESGGGLVQPGGSLRLSCAASGDDFIENAISWYRQAPGKGREWVAAVTLGGHSNYADSVKGRFTISRDNAKNTVYLQMNSLKPEDTAVYYCNYPVGIPAVAIDGRRSYGYWGQGTQVTVSS
notes: Form: Dimer
- Pseudovirus neutralization IC50 [7]: 2.29 nM
- Pseudovirus inhibition IC50 [Cont. 6] [10]: 5.25 nM
- infectivity % under 10 ug/mL VHH treatment [6]: 2.43%

B7: PP934 MBP-5HVZ-S3a-H2-H6 (VHH)
VHH: QVQLVESGGGLVQPGGSLRLSCAASGAAFSKNALHWFRQAPGKGREWVASITSGSGTQYMDSVKGRFTISRDNAKNTVYLQMNSLKPEDTAVYYCAALAYSGGYDYWGQGTQVTVSS
notes: Form: Dimer
- Pseudovirus neutralization IC50 [2]: 46300 nM
- EC50 [3]: 13.5 nM
- EC50 [4]: 1.56 nM
- EC50 [5]: 4.78 nM

B8: PP1147 MBP-5HVZ-PAPA-R5a-B7-H6 (VHH)
VHH: QVQLVESGGGLVQPGGSLRLSCAASGAFFSYGAIHWFRQAPGKQREEVAAITSGGSTGYADSVKGRFTISRDNAKNTVYLQMNSLKPEDTAVYYCNAGVVWLPSNAAYNLWGQGTQVTVSS
notes: Form: Dimer
- Pseudovirus neutralization IC50 [7]: 12.3 nM
- Pseudovirus neutralization IC50 [1]: 1.13 nM
- Pseudovirus inhibition IC50 [Cont. 6] [10]: 0.44 nM
- EC50 [4]: 0.33 nM
- EC50 [9]: 0.49 nM
- infectivity % under 10 ug/mL VHH treatment [6]: 1.79%

B9: PP1135 MBP-4B0F-PAPA-R5a-B7-H6 (VHH)
VHH: QVQLVESGGGLVQPGGSLRLSCAASGAFFSYGAIHWFRQAPGKQREEVAAITSGGSTGYADSVKGRFTISRDNAKNTVYLQMNSLKPEDTAVYYCNAGVVWLPSNAAYNLWGQGTQVTVSS
notes: Form: Heptamer
- Pseudovirus neutralization IC50 [7]: 0.533 nM
- Pseudovirus inhibition IC50 [Cont. 6] [10]: 2.13 nM
- infectivity % under 10 ug/mL VHH treatment [6]: -0.03%

B10: PP1159 MPB-scTRP-PAPA-R5a-B7-H6 (VHH)
VHH: QVQLVESGGGLVQPGGSLRLSCAASGAFFSYGAIHWFRQAPGKQREEVAAITSGGSTGYADSVKGRFTISRDNAKNTVYLQMNSLKPEDTAVYYCNAGVVWLPSNAAYNLWGQGTQVTVSS
notes: Form: Trimer
- Pseudovirus neutralization IC50 [7]: 31.9 nM
- Pseudovirus inhibition IC50 (second row with the same construct name) [Cont. 6] [10]: 215 nM
- Pseudovirus inhibition IC50 [Cont. 6] [10]: 7.98 nM
- infectivity % under 10 ug/mL VHH treatment [6]: 17.7%

B11: PP903 MBP-5HVZ-R1i-A11-H6 (VHH)
VHH: QVQLVESGGGLVQPGGSLRLSCAASGSILQINAIHWFRQAPGKQREEVAAITSGGSTGYADSVKGRFTISRDNAKNTVYLQMNSLKPEDTAVYYCAATSTRGGLDSDYWGQGTQVTVSS
notes: Form: Dimer
- Pseudovirus neutralization IC50 [7]: 56.7 nM
- Pseudovirus inhibition IC50 [Cont. 6] [10]: 50.4 nM
- EC50 [4]: 0.28 nM
- EC50 [9]: 0.26 nM
- infectivity % under 10 ug/mL VHH treatment [6]: 38.4%

B12: MBP-R2B-D5-H6 (VHH)
VHH: QVQLVESGGGLVQPGGSLRLSCAASGYADEINMVHWYRQAPGKGREFVAAIASGGSTFYADSVKGRFTISRDNAKNTVYLQMNSLKPEDTAVYYCAAIPRPSLSYAHDYAYWGQGTQVTVSS
notes: monomer
- Pseudovirus inhibition IC50 [11]: 176 nM

B13: dimeric VHH (VHH-5HVZ-MBP) R2B-E6 (VHH)
VHH: QVQLVESGGGLVQPGGSLRLSCAASGGVTRGNAMAWYRQAPGKQREIVAAIDNGGSHAYGDSVKGRFTISRDNAKNTVYLQMNSLKPEDTAVYYCAVFPDHDSEQASIDRVYWGQGTQVTVSS
- Pseudovirus inhibition IC50 [11]: 358 nM

B14: PP1146 MBP-5HVZ-PAPA-R2d-D3-H6 (VHH)
VHH: QVQLVESGGGLVQPGGSLRLSCAASGHIFSINNAAWVRQAPGKSREGVATIHSGGGTYYSDSVKGRFTISRDNAKNTVYLQMNSLKPEDTAVYYCNAEVSTGAGSRGRVSDVYWGQGTQVTVSS
notes: Form: Dimer
- Pseudovirus neutralization IC50 [7]: 36.2 nM
- Pseudovirus neutralization IC50 [1]: 4.17 nM
- Pseudovirus neutralization IC50 [2]: 6.62 nM
- Pseudovirus inhibition IC50 [Cont. 1] [8]: 77 nM
- infectivity % under 10 ug/mL VHH treatment [6]: 32.8%

B15: PP1158 MPB-scTRP-PAPA-R2d-D3-H6 (VHH)
VHH: QVQLVESGGGLVQPGGSLRLSCAASGHIFSINNAAWVRQAPGKSREGVATIHSGGGTYYSDSVKGRFTISRDNAKNTVYLQMNSLKPEDTAVYYCNAEVSTGAGSRGRVSDVYWGQGTQVTVSS
notes: Form: Trimer
- Pseudovirus neutralization IC50 [7]: 27.4 nM
- Pseudovirus inhibition IC50 [Cont. 1] [8]: 123 nM
- infectivity % under 10 ug/mL VHH treatment [6]: 28.8%

B16: PP1181 R2d-D3-PP7-H6 (VHH)
VHH: QVQLVESGGGLVQPGGSLRLSCAASGHIFSINNAAWVRQAPGKSREGVATIHSGGGTYYSDSVKGRFTISRDNAKNTVYLQMNSLKPEDTAVYYCNAEVSTGAGSRGRVSDVYWGQGTQVTVSS
- Pseudovirus neutralization IC50 [7]: 6.95 nM
- Pseudovirus inhibition IC50 [Cont. 1] [8]: 5.61 nM
- infectivity % under 10 ug/mL VHH treatment [6]: 1.57%

B17: PP900 MBP-5HVZ-R5a-F2-H6 (VHH)
VHH: QVQLVESGGGLVQPGGSLRLSCAASGSISSIEAMSWFRQAPGKQREGVATMASGGDTSYADSVKGRFTISRDNAKNTVYLQMNSLKPEDTAVYYCAAQTYRPDTWGRYTFWGQGTQVTVSS
notes: Form: Dimer
- Pseudovirus neutralization IC50 [7]: 29.6 nM
- Pseudovirus inhibition IC50 [Cont. 6] [10]: 59.3 nM
- EC50 [3]: 709 nM
- EC50 [4]: 34 nM
- EC50 [5]: 340 nM
- infectivity % under 10 ug/mL VHH treatment [6]: 18.3%

B18: PP908 MBP-5HVZ-S2a-C4-H6 (VHH)
VHH: QVQLVESGGGLVQPGGSLRLSCAASGFSESINATAWFRQAPGKQREGVAGLDGGGSDYYSDSVKGRFTISRDNAKNTVYLQMNSLKPEDTAVYYCAAQLTSSFRGYDFTPSNYDYWGQGTQVTVSS
notes: Form: Dimer
- Pseudovirus neutralization IC50 [7]: 1620 nM
- Pseudovirus neutralization IC50 [2]: 63.1 nM
- EC50 [3]: 7.42 nM
- EC50 [4]: 1.74 nM
- EC50 [5]: 3.75 nM
- EC50 [9]: 2.15 nM
- infectivity % under 10 ug/mL VHH treatment [6]: 47.5%

B19: PP1153 MBP-5HVZ-PAPA-R5d-D4-H6 (VHH)
VHH: QVQLVESGGGLVQPGGSLRLSCAASGSDFTINAMHWFRQAPGKQREFVATITSTSSTAYRDSVKGRFTISRDNAKNTVYLQMNSLKPEDTAVYYCAAFAVRDADTAGWTARDYWGQGTQVTVSS
notes: Form: Dimer
- Pseudovirus neutralization IC50 [2]: 62.9 nM
- EC50 [4]: 0.91 nM
- EC50 [9]: 223 nM
- infectivity % under 10 ug/mL VHH treatment [6]: 81.7%
